# Laboratory results reported in US20110065645A1, “Compositions and Methods for Modulating Neuron Degeneration and Neuron Guidance” (The Regents of the University of California, priority 2009, published 2011).
# System: cortical neurons
# Assay: Cortical neuron death/survival assay under PKCζ inhibition (Tuj1, TUNEL, DAPI staining)
# Format: cell-based
# From the text: 1. PKCζ is required for survival of cortical neurons. E15.5 cortical neurons were dissociated and cultured for 2 days in the presence of various concentrations of a cell membrane penetrating myristoylated peptide derived in the pseudosubstrate domain of PKC (FIGS. 12A-12D). This peptide is a specific inhibitor of PKCζ.
# 2. Axon degeneration procedes cell body death when PKC is inhibited. We examined the timing of axon degeneration and cell body death. […] The death induced by PKCζ inhibition is much faster than Aβ peptide induced neuronal death (FIG. 12D), probably because the PKCζ is an essential kinase and peptide inhibition causes instant death, whereas Aβ has to bind to cell surface receptor and trigger a signaling cascade to cause death, which requires a longer time.
# 3. Wnts are trophic factors for cortical neurons. […] Nuclear shrinkage (pyknosis) is a hallmark of neuronal cell death. Using DAPI staining, we can visualize the cell nuclei (FIG. 14B). […] Initial cortical axons and dendrite form and grow but axons start to disintegrate at E18.5 (FIG. 14D, from Wang et al 2006),^(13) (FIGS. 12F, 12K). Based on our preliminary results, we propose that Wnts are not only axon guidance molecules but also regulate neuronal survival and axon degeneration acting via PKC (FIG. 15).
# 3. Survival and cell death assays for screening of monoclonal antibodies and small compounds. We use the same cell death/survival assay as described in FIGS. 12A-14D and use microtubule staining to analyze the integrity of microtubules, DAPI stain to measure the size of cell nuclei and TUNEL staining to assay cell death. Microtubule disassembly is quantified by staining intensity of Tuj1 and Tau antibodies. The size of cell nuclei is binned into difference sizes and the distribution of the nuclei size is used as quantification of pyknosis (FIG. 14C).
molecule,measurement,setting,value
"Wnt7a: recombinant Wnt7a (protein, UniProt O00755 32-349, looked up) Protein Wnt-7a: LGASIICNKIPGLAPRQRAICQSRPDAIIVIGEGSQMGLDECQFQFRNGRWNCSALGERTVFGKELKVGSREAAFTYAIIAAGVAHAITAACTQGNLSDCGCDKEKQGQYHRDEGWKWGGCSADIRYGIGFAKVFVDAREIKQNARTLMNLHNNEAGRKILEENMKLECKCHGVSGSCTTKTCWTTLPQFRELGYVLKDKYNEAVHVEPVRASRNKRPTFLKIKKPLSYRKPMDTDLVYIEKSPNYCEEDPVTGSVGTQGRACNKTAPQASGCDLMCCGRGYNTHQYARVWQCNCKFHWCCYVKCNTCSERTEMYTCK",axon degeneration / reduction of microtubule staining (Tuj1),5 um pseudosubstrate peptide,much less degeneration was seen
same,axons remaining judged by Tuj1 staining,10 um pseudosubstrate peptide,more axons still remain
same,cell death induced by PKC inhibition,pretreatment before pseudosubstrate peptide,block/reduce the cell death
